Assay results as given in patent US6399078.
pKd: −log10 of the molar value.

Key:
[1] = biological target: cell surface receptors on glycanase treated PBMC; experiment: saturation binding of 125I-RANTES-heparin complexes to glycanase treated activated human PBMC
[2] = biological target: cell surface receptors on glycanase treated PBMC; experiment: saturation binding of 125I-RANTES-heparin complexes to glycanase treated activated human PBMC, nonlinear curve fitting
[3] = biological target: cell surface receptors on glycanase treated PBMC; experiment: saturation binding of 125I-RANTES-heparin complexes to glycanase treated activated human PBMC, gamma counting, nonlinear curve fitting after subtracting non-specific binding
[4] = biological target: CCR5 (human) (UniProt P51681); experiment: flow cytometry of the activated human PBMC with mAb 2D7
[5] = biological target: CCR5 (human) (UniProt P51681); experiment: glycanase treated PBMC preincubated with mAb 2D7, then 125I-RANTES-heparin complexes as labelled ligand, gamma counting; reference normal mouse IgG

Chain of UniProt P51681 (P51681 whole entry): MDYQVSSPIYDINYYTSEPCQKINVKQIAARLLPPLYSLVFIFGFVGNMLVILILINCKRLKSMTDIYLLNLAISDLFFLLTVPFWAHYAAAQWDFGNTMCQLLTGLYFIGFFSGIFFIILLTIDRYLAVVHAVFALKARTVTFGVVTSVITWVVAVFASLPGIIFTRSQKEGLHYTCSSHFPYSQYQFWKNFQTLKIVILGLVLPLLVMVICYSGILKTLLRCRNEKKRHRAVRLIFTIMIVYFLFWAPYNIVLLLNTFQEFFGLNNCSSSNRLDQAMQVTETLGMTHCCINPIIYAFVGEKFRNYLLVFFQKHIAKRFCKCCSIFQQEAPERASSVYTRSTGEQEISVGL

| Substance | saturating concentration [1] [nM] | Bmax (binding sites per cell) [2] | pKd [3] | percent of cells expressing CCR5 (stained by 2D7) [4] [%] | percent reduction of 125I-RANTES binding [5] [percent] |
| --- | --- | --- | --- | --- | --- |
| 125I-labeled RANTES-heparin complexes (from UniProt P13501 24-91) (ligand) | > 1 | 900 | 8.82 | – | – |
| anti-CCR5 monoclonal antibody 2D7 | – | – | – | 100 | 40 |
